We go through 1 molecule from publication PMC11811016 (Nature Communications, 2025).

The experiment concerns the target T1, recombinant his-PGC-1α (mouse, UniProt O70343 1-797, labeled with red-tris-NTA 2nd generation His-tag labeling kit).
T1 sequence (looked up): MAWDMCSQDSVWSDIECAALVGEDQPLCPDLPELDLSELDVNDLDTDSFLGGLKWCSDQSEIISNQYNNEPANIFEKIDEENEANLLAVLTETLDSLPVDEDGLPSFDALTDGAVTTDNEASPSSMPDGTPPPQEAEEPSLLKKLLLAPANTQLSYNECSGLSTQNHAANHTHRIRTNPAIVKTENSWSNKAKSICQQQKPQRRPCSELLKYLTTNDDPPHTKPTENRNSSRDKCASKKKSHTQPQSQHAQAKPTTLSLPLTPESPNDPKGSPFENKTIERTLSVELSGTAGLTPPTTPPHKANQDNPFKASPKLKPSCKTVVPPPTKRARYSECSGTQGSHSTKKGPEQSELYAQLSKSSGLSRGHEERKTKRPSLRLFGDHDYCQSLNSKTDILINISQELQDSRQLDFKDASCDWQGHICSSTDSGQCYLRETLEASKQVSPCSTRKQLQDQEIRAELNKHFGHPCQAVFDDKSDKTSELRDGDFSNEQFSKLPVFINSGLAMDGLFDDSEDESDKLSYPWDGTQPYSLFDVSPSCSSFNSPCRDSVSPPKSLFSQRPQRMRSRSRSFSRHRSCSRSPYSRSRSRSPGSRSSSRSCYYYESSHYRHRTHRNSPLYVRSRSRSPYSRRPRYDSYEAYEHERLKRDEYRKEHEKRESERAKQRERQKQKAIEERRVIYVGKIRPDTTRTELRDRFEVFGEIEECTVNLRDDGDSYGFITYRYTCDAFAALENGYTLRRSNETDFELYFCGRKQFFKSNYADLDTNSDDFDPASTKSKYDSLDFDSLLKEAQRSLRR
The experiment is described as follows: MST.

B1: purified KMT5C protein (his tag cleaved) (enzyme)
chain: not shown
As usually defined, the Kd is the constant that tells how readily two partners part at equilibrium. Take B1: the Kd came out at 1.73 µM.
